Measurements as given in the RNAGym collection of RNA variant scans (doi:10.7554/elife.80360).

B1: Hammerhead Ribozyme (parent)
chain: ACCGGAUGUGCUUUCCGGUCUGAUGAGUCCGUGAGGACGAAACAG

Variants of: B1
Assay: self-cleavage, relative activity (ratio to wild type); higher = more cleavage; co-transcriptional
ACCGGAUGUGGUUUCCGGUCUGAUGAGUCCGUGAGAACGAAACAG [C11G G36A] showed a self-cleavage of 0.763. ACCGGAUGUGCUUUCCGGUCUUAUGACUCCGUGAGGACGAAACAG [G22U G27C] showed a self-cleavage of 0.347. With ACCGGAUGUGCUUUCCGGCCUGAUGAAUCCGUGAGGACGAAACAG [U19C G27A] the self-cleavage was 0.382. Variant ACCGGAUGUGCUUUCCGAUCUGAUGAGUCCGUGAGGACGUAACAG [G18A A40U] has a self-cleavage of 0.288. With ACCGGAUGUGCUUUCCGGGCUGAUGAGUCCGUGAGGACGAAAGAG [U19G C43G] the self-cleavage was 0.321. For ACCGCAUGUGCUUUCCAGUCUGAUGAGUCCGUGAGGACGAAACAG [G5C G17A], the self-cleavage was 0.313. Variant ACCGGAUGUGCUUUCCGGUCUAAUGAGUCCGUGAGGACGAAACAA [G22A G45A] has a self-cleavage of 0.369. For ACCGGAUGUGCUUUCCGGUCUGACGAGUCCGUGAGGACCAAACAG [U24C G39C], the self-cleavage was 0.352. Work on ACCGGAUGUGCUAUCCGGGCUGAUGAGUCCGUGAGGACGAAACAG [U13A U19G] yielded a self-cleavage of 0.425. Variant ACUGGAUGUGCUUUCCGGUCUGAUGAGUCCGUGAGGACCAAACAG [C3U G39C] has a self-cleavage of 0.462. For ACCGGAUGUGCUUUCCGGUCUGAUGAGAGCGUGAGGACGAAACAG [U28A C29G], the self-cleavage was 0.445. In the case of ACCGGAUGUGCUUCCCGGUAUGAUGAGUCCGUGAGGACGAAACAG [U14C C20A], the self-cleavage is reported as 0.337. For ACCGGAUGUGCUUUCCGGUCUGAUGAGUCCAAGAGGACGAAACAG [G31A U32A], the self-cleavage was 1.06. With ACCGGAUGUGCUUUCCGGUCUGAUGAGUGCGUGACGACGAAACAG [C29G G35C] the self-cleavage was 0.602. ACCGGAUGUGCCUUCAGGUCUGAUGAGUCCGUGAGGACGAAACAG [U12C C16A] gave a self-cleavage of 0.908. ACCGGAUGUGCUUUCAGGUCUGUUGAGUCCGUGAGGACGAAACAG [C16A A23U] gave a self-cleavage of 0.305. Variant ACCGGAUGUGCUUUCGGGUCUGAUGAGUCCGUGAGGACGAAACAU [C16G G45U] has a self-cleavage of 0.467. ACCGGAUGUGCUUUCGGGUCUGAUGAGUCCGUGAGGACGAAACAC [C16G G45C] gave a self-cleavage of 0.397. Work on ACCCGAUGUGCUUUCCGGUCUGAGGAGUCCGUGAGGACGAAACAG [G4C U24G] yielded a self-cleavage of 0.599. With ACCGGAUGUGCUUUCCCAUCUGAUGAGUCCGUGAGGACGAAACAG [G17C G18A] the self-cleavage was 0.361. In the case of ACCGGAGGUGCUUUUCGGUCUGAUGAGUCCGUGAGGACGAAACAG [U7G C15U], the self-cleavage is reported as 1.26. Variant ACCGGAUGUGAUUUCCGGUCUGAUGAGUCCGUUAGGACGAAACAG [C11A G33U] has a self-cleavage of 1.21. ACCGGAUGUGCUUUCCGGUCUGAAGAGUUCGUGAGGACGAAACAG [U24A C29U] showed a self-cleavage of 0.883. Work on ACCGGAUGUGCUUUCCGGUCUGGUGAGUCCGUGAGGACUAAACAG [A23G G39U] yielded a self-cleavage of 0.347. Variant ACCGGAUGUGUUUUCCGGUCUGAUGAGUCCGUGAGGACGAAACAA [C11U G45A] has a self-cleavage of 0.515. AUCGGAUGUGCCUUCCGGUCUGAUGAGUCCGUGAGGACGAAACAG [C2U U12C] showed a self-cleavage of 1.06. For ACCGGAUGUGCUUUCCGGUCUGAUGAGUCUCUGAGGACGAAACAG [C30U G31C], the self-cleavage was 1.11. In the case of ACCGGAUGUGCUUUGCGAUCUGAUGAGUCCGUGAGGACGAAACAG [C15G G18A], the self-cleavage is reported as 0.378. In the case of ACAGGAUGUGCUUUCCGGUCUGAUGAGUCCGUGAGGACGAAAAAG [C3A C43A], the self-cleavage is reported as 0.28. ACGGGAUGUGCUUUCCGGGCUGAUGAGUCCGUGAGGACGAAACAG [C3G U19G] showed a self-cleavage of 0.306. ACCGGAUGUGCAUUCCGGUCUGAUGGGUCCGUGAGGACGAAACAG [U12A A26G] gave a self-cleavage of 0.424. For ACCGGAUGUGCUUUCCGGUCUGAUGCGUCCGUGAGGACGAAAAAG [A26C C43A], the self-cleavage was 0.349. For ACCAGAUGUGCUUUCCGGUCUGAUGAGCCCGUGAGGACGAAACAG [G4A U28C], the self-cleavage was 0.306. Variant ACUGGAUGUGCUUUCCGGUCUGAUGGGUCCGUGAGGACGAAACAG [C3U A26G] has a self-cleavage of 0.366. Work on ACCGGAUGUGCUUCCCGGUCUGAUGAGUCCGUGAGGACAAAACAG [U14C G39A] yielded a self-cleavage of 0.349. In the case of ACCGGAUGUGCCUUCCGGUCUGAUAAGUCCGUGAGGACGAAACAG [U12C G25A], the self-cleavage is reported as 0.352. In the case of ACCGUAUGUGCUUUCCGGUCUGAUGAGUCGGUGAGGACGAAACAG [G5U C30G], the self-cleavage is reported as 0.445. ACCGGAUGGGCUUUCCGGUCUGAUGAGUCCGUGAGGACGAAAUAG [U9G C43U] gave a self-cleavage of 0.339. Variant ACCGGAUGUGCUUUCCCGUCUGAUGAGUCCGUGAGGAGGAAACAG [G17C C38G] has a self-cleavage of 0.452. AGCGGAUGCGCUUUCCGGUCUGAUGAGUCCGUGAGGACGAAACAG [C2G U9C] gave a self-cleavage of 0.357. Variant ACCGGAUGUGCUUUCCAGUCUGAUGAGUCCGCGAGGACGAAACAG [G17A U32C] has a self-cleavage of 0.812. Work on ACCGGAUGUGCUUUCCGGUCUGGUGAGUCCGUGAGGACGAUACAG [A23G A41U] yielded a self-cleavage of 0.298. ACCGGAUGAGCUUUCCGAUCUGAUGAGUCCGUGAGGACGAAACAG [U9A G18A] showed a self-cleavage of 0.497. For ACCGGAUGUCCUUUCCGGUCAGAUGAGUCCGUGAGGACGAAACAG [G10C U21A], the self-cleavage was 0.533. With ACCGGAUUUGCUUUCCGGUCUGAUGAGUCCGUGAGGGCGAAACAG [G8U A37G] the self-cleavage was 0.906. Variant ACCGGAUGUGCUUUCCGGUCUGAUGAGACCGUGAGGAGGAAACAG [U28A C38G] has a self-cleavage of 0.521. With ACCGGAUGUGCUUUCCGAUCUGAUGAGUCCGUGAGGACGAAAUAG [G18A C43U] the self-cleavage was 0.285. CCCGGAUGUGCUUUCCGGUCUGAUGAGUCCGUGAGGACGAUACAG [A1C A41U] showed a self-cleavage of 0.341. ACCGCAUCUGCUUUCCGGUCUGAUGAGUCCGUGAGGACGAAACAG [G5C G8C] showed a self-cleavage of 0.77. ACCGGAUGUGCUUUCCGGUCUGAUGAAUGCGUGAGGACGAAACAG [G27A C29G] showed a self-cleavage of 0.412. ACCCGAUGUGCUUUCCGGUCUGAUGAGUCCGUGAGGACGAAACAA [G4C G45A] showed a self-cleavage of 0.355. ACCGGAUGUGCUUUCCGGUAUGAUGAGUCCGUGAGGAAGAAACAG [C20A C38A] showed a self-cleavage of 0.292. For ACCGGAUGUGCUUUACGGUCUGAUGCGUCCGUGAGGACGAAACAG [C15A A26C], the self-cleavage was 0.437. Variant ACCGGAUGUGCUUUCCGGACUGAUCAGUCCGUGAGGACGAAACAG [U19A G25C] has a self-cleavage of 0.296. Work on ACCGGAUGUGCUUUCCGGUCUGUUGAGCCCGUGAGGACGAAACAG [A23U U28C] yielded a self-cleavage of 0.356. For ACCGGAUGUGCUUUCCGGUCUGAUGAGCCCGUGAGGACGAAACAU [U28C G45U], the self-cleavage was 0.727. Variant ACCGGAUGUGCUUGCCGGUCUGAUGAGUCCGUCAGGACGAAACAG [U14G G33C] has a self-cleavage of 0.528.
